What is called IC50 is the concentration that inhibits the measured activity by half. Read a high IC50 as lower potency.

Among the data in PMC9175492 are fold induction of luminescence and IC50 values, retold here.

Assay [1] addresses LgBit, an 18-kDa subunit of NanoLuc. Kind of assay: split reporter.
Assay [2] concerns the target Kelch domain of Kelch-like ECH-associated protein 1 (Keap1). Nature of the assay: fluorescence polarisation. A general note: In fluorescence polarisation assays a small probe gives low polarisation when free and higher when bound to something large.

In the case of VSGWRLFKKIS [HiBit, an 11-residue peptide derived from NanoLuc], the fold induction of luminescence at 10 μM in assay [1] was 20 fold. The molecule GQLDPETGEFL (here or on the partner: cyclic peptide) [cyclic peptidyl inhibitor P1, Cyclo(…)] yielded a half-maximal inhibitory concentration (IC50) in assay [2] of 14 nM.
